Experimental data: publication PMC8834548, “Epiregulin as an Alternative Ligand for Leptin Receptor Alleviates Glucose Intolerance without Change in Obesity” (Cells, 2022)

T1: mouse recombinant leptin receptor (LepR) protein (mouse, UniProt P48356 22-839)
T1 construct: leptin receptor, mouse, recombinant, R&D systems 497-LR/CF; also called recombinant LepR; source: bought: R&D systems, 497-LR/CF
T1 sequence (looked up): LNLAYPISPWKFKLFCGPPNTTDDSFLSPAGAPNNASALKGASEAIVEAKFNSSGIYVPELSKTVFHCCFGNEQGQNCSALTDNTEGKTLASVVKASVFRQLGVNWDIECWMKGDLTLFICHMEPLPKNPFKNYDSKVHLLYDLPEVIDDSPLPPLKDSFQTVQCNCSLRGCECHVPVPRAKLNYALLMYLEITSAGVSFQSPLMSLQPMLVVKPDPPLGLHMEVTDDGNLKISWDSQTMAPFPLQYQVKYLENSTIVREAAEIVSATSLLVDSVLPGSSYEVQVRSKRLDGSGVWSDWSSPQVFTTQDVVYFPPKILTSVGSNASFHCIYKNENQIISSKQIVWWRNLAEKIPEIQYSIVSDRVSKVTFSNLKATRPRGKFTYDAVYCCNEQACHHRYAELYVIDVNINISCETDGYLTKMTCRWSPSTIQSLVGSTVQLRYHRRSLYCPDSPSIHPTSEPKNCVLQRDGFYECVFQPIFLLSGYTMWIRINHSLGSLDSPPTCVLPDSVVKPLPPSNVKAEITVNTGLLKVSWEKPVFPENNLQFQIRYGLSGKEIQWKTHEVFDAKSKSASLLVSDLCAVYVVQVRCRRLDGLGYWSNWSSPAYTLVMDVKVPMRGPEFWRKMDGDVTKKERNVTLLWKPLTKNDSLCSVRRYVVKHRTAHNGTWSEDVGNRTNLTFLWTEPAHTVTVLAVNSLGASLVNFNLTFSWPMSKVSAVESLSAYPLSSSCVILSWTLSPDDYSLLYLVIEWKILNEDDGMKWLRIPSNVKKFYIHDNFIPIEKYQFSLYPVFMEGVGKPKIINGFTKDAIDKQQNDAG


Experiments:
[1] = target: mouse recombinant leptin receptor (LepR) protein (mouse) (UniProt P48356); assay: quartz crystal microbalance with dissipation (QCM-D); LepR (1.6 pM in PBS) laid as a monolayer on a gold quartz sensor, then mouse leptin or mouse EREG (1.6 fM) added; PBS pH 7.1-7.5, 25 C, flow 50 uL/min; frequency, dissipation and modelled film thickness
[2] = target: leptin receptor (LepR), endogenous in mouse adipose tissue (mouse (endogenous in Lep^ob adipose tissue)) (UniProt P48356)
[3] = target: T1, mouse recombinant leptin receptor …; assay: quartz crystal microbalance with dissipation (QCM-D); LepR (1.6 pM in PBS) laid as a monolayer on a gold quartz sensor, then mouse leptin or mouse EREG (1.6 fM) added; PBS pH 7.1-7.5, 25 C, flow 50 uL/min; frequency, dissipation and modelled film thickness; settings: both partners purified

Molecule | thickness of the LepR film after EREG was added (23 nm before) [1] | FD-glucose uptake in 3T3-L1 preadipocytes against the concentration of mouse EREG [2] | binding result [3]
mouse recombinant EREG (ligand) | 20 nm | 26 nM | 
mouse leptin (ligand, UniProt P41160 22-167, looked up, leptin, mouse, Crystal Chem 90030-B; source: bought: Crystal Chem, 90030-B) VPIQKVQDDTKTLIKTIVTRINDISHTQSVSAKQRVTGLDFIPGLHPILSLSKMDQTLAVYQQVLTSLPSQNVLQIANDLENLRDLLHLLAFSKSCSLPQTSGLQKPESLDGVLEASLYSTEVVALSRLQGSLQDILQQLDVSPEC |  |  | binds
